We go through six molecules from patent US20210380679A1 (INHIBRX BIOSCIENCES, published 2021).

Positions count from the first letter of the chain named. Where only a bound is given, the exact number is not on record here.

Experiment [1] concerns the target T1, human DLL3 (Delta-like ligand 3) (human, UniProt Q9NYJ7 27-618).
T1 construct: endogenous on SHP-77 cells; also called cell-surface DLL3
T1 sequence: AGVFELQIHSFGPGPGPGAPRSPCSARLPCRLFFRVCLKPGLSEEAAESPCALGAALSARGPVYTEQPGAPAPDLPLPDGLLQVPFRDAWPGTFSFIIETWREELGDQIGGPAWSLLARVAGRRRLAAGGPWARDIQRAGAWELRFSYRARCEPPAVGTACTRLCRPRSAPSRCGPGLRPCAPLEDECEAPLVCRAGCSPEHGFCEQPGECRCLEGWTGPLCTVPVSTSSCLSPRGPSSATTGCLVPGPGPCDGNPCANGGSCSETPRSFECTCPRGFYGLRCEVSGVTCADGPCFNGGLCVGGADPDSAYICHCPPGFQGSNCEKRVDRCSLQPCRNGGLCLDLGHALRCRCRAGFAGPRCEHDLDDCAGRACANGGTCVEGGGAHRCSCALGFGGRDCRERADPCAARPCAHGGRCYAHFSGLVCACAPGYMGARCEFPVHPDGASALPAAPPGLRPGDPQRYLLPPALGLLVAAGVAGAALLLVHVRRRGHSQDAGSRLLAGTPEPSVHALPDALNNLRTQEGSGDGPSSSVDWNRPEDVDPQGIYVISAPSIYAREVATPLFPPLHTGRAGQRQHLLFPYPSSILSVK
Put plainly: flow cytometry, SHP-77 cells. The protocol:
(§1) Binding of exemplary DLL3-targeting constrained CD3 engaging constructs of the disclosure, referred to herein as cx4720, cx3715, cx4422, cx3708, cx4052, cx3985, cx4059, cx4087, cx4088, cx4895, cx3991, cx3711, cx4887, cx4896, cx4899, cx4406, cx3707, cx3710, cx4888 and cx4890, to CD3 on the surface of primary T cells was assessed via flow cytometry (SONY SA3800 spectral analyzer) using T-cell that were negatively enriched from PBMCs isolated from healthy human donor leukopaks. Representative DLL3-targeting constrained CD3 engaging constructs were assessed for binding to T cells and DLL3 expressing cells (SHP-77). Bound cx4720, cx3715, cx4422, cx3708, cx4052, cx3985, cx4059, cx4087, cx4088, cx4895, cx3991, cx3711, cx4887, cx4896, cx4899, cx4406, cx3707, cx3710, cx4888 and cx4890 was detected with fluorophore-conjugated secondary antibodies specific for the human Fc and binding was measured by flow cytometry. Cells incubated with secondary antibody only served as negative controls.
(§2) Table E4 summarizes the affinity of exemplary molecules for DLL3 or CD3, as determined from flow cytometry, in these studies.

Experiment [2] addresses T2, CD3 on the surface of T cells (human, UniProt P07766 23-207).
T2 construct: whole, on cells; multi-chain complex; also called CD3 epsilon
Put plainly: flow cytometry, primary human T cells. The protocol: as §1, §2

T2 sequence (P07766 23-207): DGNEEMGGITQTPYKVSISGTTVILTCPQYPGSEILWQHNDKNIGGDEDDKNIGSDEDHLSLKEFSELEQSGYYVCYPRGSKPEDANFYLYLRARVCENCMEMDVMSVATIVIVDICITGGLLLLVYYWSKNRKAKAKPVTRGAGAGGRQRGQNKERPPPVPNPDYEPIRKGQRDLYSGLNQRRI

B1: cx4896 (bispecific antibody)
chain 1: EVQLVESGGGEVQPGGSLRLSCAASGSIFSINAMGWYRQAPGKQRELVAGFTGDTNTIYAESVKGRFTISRDNAKNTVYLQMSSLRAEDTAVYYCAADVQLFSRDYEFYWGQGTLVTVKPDKTHTCPPCPAPGGPSVFLFPPKPKDTLMISRTPEVTCVVVDVSHEDPEVKFNWYVDGVEVHNAKTKPREEQYNSTYRVVSVLTVLHQDWLNGKEYKCKVSNKALPAPIEKTISKAKGQPREPQVYTLPPCRDELTKNQVSLWCLVKGFYPSDIAVEWESNGQPENNYKTTPPVLDSDGSFFLYSKLTVDKSRWQQGNVFSCSVMHEALHNHYTQKSLSLSPTGGGGGSGGGGGSGGGGGSEVQLVESGGGLVQPGGSLRLSCAASGFTFNTYAMNWVRQAPGKCLEWVARIRSKYNNYATYYADSVKGRFTISRDDAKNTLYLQMSSLRAEDTAVYYCVRHGNFGNSYVSWFAYWGQGTLVTVKPEVQLVESGGGEVQPGGSLRLSCGPSEIITSDKSVGWWRQAPGKQRNLVAGISNVGSTNYAQSVKGRFTISRDNAKNTLYLQMSSLRAEDTAVYYCYARDFENEYWGQGTLVTVKP
chain 2: DKTHTCPPCPAPGGPSVFLFPPKPKDTLMISRTPEVTCVVVDVSHEDPEVKFNWYVDGVEVHNAKTKPREEQYNSTYRVVSVLTVLHQDWLNGKEYKCKVSNKALPAPIEKTISKAKGQPREPQVCTLPPSRDELTKNQVSLSCAVKGFYPSDIAVEWESNGQPENNYKTTPPVLDSDGSFFLVSKLTVDKSRWQQGNVFSCSVMHEALHNRYTQKSLSLSPTGGGGGSGGGGGSGGGGGSQAVVTQEPSLTVSPGGTVTLTCGSSTGAVTTSNYANWVQQKPGQAFRGLIGGTNKRAPGVPARFSGSLLGGKAALTISGAQPEDEADYYCALWYSNHWVFGCGTKLEIKEVQLLESGGGEVQPGGSLRLSCAASGFSFSINAMGWYRQAPGKRREFVAAIESGRNTVYAESVKGRFTISRDNAKNTVYLQMSSLRAEDTAVYYCGLLKGNRVVSPSVAYWGQGTLVTVKP
notes: also carries a 41BB sdAb
For B1, the Kd in experiment [1] is 0.339 nM; in experiment [2] it was above 200 nM.

B2: cx4895 (bispecific antibody)
chain 1: EVQLVQSGGGLVQAGGSLRLSCAASGSILSINAMGWYRQPPGKQREMVAGFTGDGNTIYADSVKGRFTISRDNAKNTVYLQMNSLKPEDTAVYYCAADVQLFSRDYEFYWGQGTQVTVKPDKTHTCPPCPAPGGPSVFLFPPKPKDTLMISRTPEVTCVVVDVSHEDPEVKFNWYVDGVEVHNAKTKPREEQYNSTYRVVSVLTVLHQDWLNGKEYKCKVSNKALPAPIEKTISKAKGQPREPQVYTLPPCRDELTKNQVSLWCLVKGFYPSDIAVEWESNGQPENNYKTTPPVLDSDGSFFLYSKLTVDKSRWQQGNVFSCSVMHEALHNHYTQKSLSLSPTGGGGGSGGGGGSGGGGGSEVQLVESGGGLVQPGGSLRLSCAASGFTFNTYAMNWVRQAPGKCLEWVARIRSKYNNYATYYADSVKGRFTISRDDAKNTLYLQMSSLRAEDTAVYYCVRHGNFGNSYVSWFAYWGQGTLVTVKPEVQLQESGGGLVQAGGSLRLSCGPSEIITSDKSVGWWRQAPGKQRNLVAGISNVGSTNYAQSVKGRFTISRDNAKNTLFLQMNSLKPEDTAVYYCYARDFENEYWGRGTQVTVKP
chain 2: B1 chain 2
notes: as printed the same parts as cx4720
For the molecule B2, the Kd in experiment [1] was 0.065 nM; in experiment [2] it was above 200 nM.

B3: cx4720 (bispecific antibody)
chain 1: B2 chain 1
chain 2: B1 chain 2
notes: also carries a 41BB sdAb
B3: the Kd in experiment [1] is 0.115 nM; in experiment [2] it was above 200 nM.

B4: cx4888 (bispecific antibody)
chain 1: B1 chain 1 with G509A, P510A, Y565F
chain 2: B1 chain 2
notes: also carries a 41BB sdAb
B4: the Kd in experiment [1] was 0.134 nM; in experiment [2], above 200 nM.

B5: cx4890 (bispecific antibody)
chain 1: B2 chain 1
chain 2: DKTHTCPPCPAPGGPSVFLFPPKPKDTLMISRTPEVTCVVVDVSHEDPEVKFNWYVDGVEVHNAKTKPREEQYNSTYRVVSVLTVLHQDWLNGKEYKCKVSNKALPAPIEKTISKAKGQPREPQVCTLPPSRDELTKNQVSLSCAVKGFYPSDIAVEWESNGQPENNYKTTPPVLDSDGSFFLVSKLTVDKSRWQQGNVFSCSVMHEALHNRYTQKSLSLSPTGGGGGSGGGGGSGGGGGSQAVVTQEPSLTVSPGGTVTLTCGSSTGAVTTSNYANWVQQKPGQAFRGLIGGTNKRAPGVPARFSGSLLGGKAALTISGAQPEDEADYYCALWYSNHWVFGCGTKLEIK
In the case of B5, the Kd in experiment [1] was 0.062 nM; in experiment [2] it was above 200 nM.

B6: cx4899 (bispecific antibody)
chain 1: EVQLVESGGGEVQPGGSLRLSCGPSEIITSDKSVGWWRQAPGKQRNLVAGISNVGSTNYAQSVKGRFTISRDNAKNTLYLQMSSLRAEDTAVYYCYARDFENEYWGQGTLVTVKPDKTHTCPPCPAPGGPSVFLFPPKPKDTLMISRTPEVTCVVVDVSHEDPEVKFNWYVDGVEVHNAKTKPREEQYNSTYRVVSVLTVLHQDWLNGKEYKCKVSNKALPAPIEKTISKAKGQPREPQVYTLPPCRDELTKNQVSLWCLVKGFYPSDIAVEWESNGQPENNYKTTPPVLDSDGSFFLYSKLTVDKSRWQQGNVFSCSVMHEALHNHYTQKSLSLSPTGGGGGSGGGGGSGGGGGSEVQLVESGGGLVQPGGSLRLSCAASGFTFNTYAMNWVRQAPGKCLEWVARIRSKYNNYATYYADSVKGRFTISRDDAKNTLYLQMSSLRAEDTAVYYCVRHGNFGNSYVSWFAYWGQGTLVTVKPEVQLVESGGGEVQPGGSLRLSCAASGSIFSINAMGWYRQAPGKQRELVAGFTGDTNTIYAESVKGRFTISRDNAKNTVYLQMSSLRAEDTAVYYCAADVQLFSRDYEFYWGQGTLVTVKP
chain 2: B5 chain 2
For B6, the values for the Kd in experiment [1] and in experiment [2] were 0.397 nM and above 200 nM, respectively.
